B1: α-SNAP-25 mouse monoclonal antibody 2E2A6 (antibody, V domains shown)
VH: QVQLQQSDAELVKPGASVKISCRASGYTFTDHSIHWVKQQPGQGLEWIGYIFPGNGNIEYNDKFKGKATLTADKSSGTAYMQLNSLTSEDSAVYFCKRMGYWGQGTSVTVSS
VL: DVLMTQTPLTLSVTIGQPASISCKSSQSLLYTNGKTYLTWLFQRPGQSPKRLIYLVSELDSGVPDRFSGSGSGTDFTLEITRVEAEDLGVYYCLQSAHFPFTFGSGTKLEIKR
B2: α-SNAP-25 mouse monoclonal antibody 3C1A5 (antibody, V domains shown)
VH: QVKLQESGAELVKPGASVKISCKASGYTFTDHSIHWVKQKPGQGLEWIGYLFPGNGNFEYNEKFKGKATLTADKSSSTVYMYLNSLTSEDSAVYFCKRMGYWGQGTTVTVSS
VL: DVVMTQTPLTLSVTIGQPASISCKSSQSLLNTNGKTYLTWLIQRPGQSPQRLIYLVSKLDSGVPDRFSGSGSGTDFTLKISRVEAEDLGVYYCLQSSHFPFTFGSGTKLEIKR
B3: α-SNAP-25 mouse monoclonal antibody 1D3B8 (antibody, V domains shown)
VH: QVKLQESGAELVKPGASVKISCKASGYIFTDHALHWVRQKPEQGLEWIGYIFPGNGNIEYNEKFKGKATLTADKSSSTAYMQLNSLTSGDSAMYFCKKMDYWGQGTTVTVSS
VL: DVLMTQTPLSLPVSLGDQASISCRSSQSIVHSNGNTYLEWYLQKPGQSPKLLIYKVSNRFSGVPDRFSGSGSGTDFTLKISRVEAEDLGVYYCFQGSHVPPTFGAGTKLELKR

This is an account of results in patent US20170248602A1 (ALLERGAN, published 2017).

T1 sequence (P60881 whole entry): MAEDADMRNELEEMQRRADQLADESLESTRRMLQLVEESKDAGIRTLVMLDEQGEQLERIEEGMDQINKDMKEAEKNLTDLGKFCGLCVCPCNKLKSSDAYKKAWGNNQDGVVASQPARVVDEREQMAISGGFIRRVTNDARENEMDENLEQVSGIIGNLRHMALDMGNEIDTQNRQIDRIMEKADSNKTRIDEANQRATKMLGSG

The test concerns the target T1, SNAP-25206 uncleaved substrate in PC12 cells (rat (PC12 cells), UniProt P60881 1-206).
T1 construct: also called uncleaved SNAP-25
The test is described as follows: cell-based assay: Western blot of PC12 lysates, ascites 1:100.
As to B1, the binding result is “no binding”.
The result for B2 reads “no binding”.
The result for B3 reads “no binding”.
